# Data from the supplement of paper PMC10567573.
# B1: NET1 (parent)
# chain: IKRTIRVLDVNNQSFREQEEPSNK
# Variants of: B1
# Experiment: protein stability index of a GFP-peptide fusion (GPS, HEK-293T) (PSI 1-6); higher = more stable
# Details: c terminus: a fixed tail appended
# 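Also: lentivirally expressed fusions sorted by FACS into six bins by GFP to DsRed ratio, PSI derived from sequencing read proportions per bin multiplied by bin number.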
row,Variant,protein stability index
1,IKRTIQVLDVNNQSFREQEEPSNK [R6Q],4.16
2,IKRTIYVLDVNNQSFREQEEPSNK [R6Y],2.35
3,IKRTITVLDVNNQSFREQEEPSNK [R6T],3.92
4,IKRTIAVLDVNNQSFREQEEPSNK [R6A],2.88
5,IKRTIVVLDVNNQSFREQEEPSNK [R6V],2.77
6,IKRTILVLDVNNQSFREQEEPSNK [R6L],2.63
7,IKRTISVLDVNNQSFREQEEPSNK [R6S],4.23
8,IKRTIPVLDVNNQSFREQEEPSNK [R6P],4.87
9,IKRTIGVLDVNNQSFREQEEPSNK [R6G],4.51
10,IKRTIWVLDVNNQSFREQEEPSNK [R6W],2.42
11,IKRTICVLDVNNQSFREQEEPSNK [R6C],3.35
12,IKRTIMVLDVNNQSFREQEEPSNK [R6M],3.32
13,IKRTIEVLDVNNQSFREQEEPSNK [R6E],4.65
14,IKRTIFVLDVNNQSFREQEEPSNK [R6F],2.68
15,IKRTIHVLDVNNQSFREQEEPSNK [R6H],4.45
16,IKRTIDVLDVNNQSFREQEEPSNK [R6D],4.77
17,IKRTIKVLDVNNQSFREQEEPSNK [R6K],4.04
18,IKRTINVLDVNNQSFREQEEPSNK [R6N],3.62
19,IKRTIIVLDVNNQSFREQEEPSNK [R6I],1.99
20,IKRTPRVLDVNNQSFREQEEPSNK [I5P],3.78
21,IKRTQRVLDVNNQSFREQEEPSNK [I5Q],5.04
22,IKRTFRVLDVNNQSFREQEEPSNK [I5F],3.39
23,IKRTWRVLDVNNQSFREQEEPSNK [I5W],3.31
24,IKRTCRVLDVNNQSFREQEEPSNK [I5C],4.41

row,Variant,protein stability index
1,IKRTDRVLDVNNQSFREQEEPSNK [I5D],4.91
2,IKRTARVLDVNNQSFREQEEPSNK [I5A],4.53
3,IKRTRRVLDVNNQSFREQEEPSNK [I5R],4.82
4,IKRTTRVLDVNNQSFREQEEPSNK [I5T],5.1
5,IKRTLRVLDVNNQSFREQEEPSNK [I5L],2.94
6,IKRTERVLDVNNQSFREQEEPSNK [I5E],5.05
7,IKRTKRVLDVNNQSFREQEEPSNK [I5K],4.75
8,IKRTHRVLDVNNQSFREQEEPSNK [I5H],4.69
9,IKRTSRVLDVNNQSFREQEEPSNK [I5S],4.56
10,IKRTYRVLDVNNQSFREQEEPSNK [I5Y],3.95
11,IKRTNRVLDVNNQSFREQEEPSNK [I5N],4.08
12,IKRTMRVLDVNNQSFREQEEPSNK [I5M],2.55
13,IKRTIRVQDVNNQSFREQEEPSNK [L8Q],4.41
14,IKRTIRVDDVNNQSFREQEEPSNK [L8D],4.92
15,IKRTIRVIDVNNQSFREQEEPSNK [L8I],2.96
16,IKRTIRVGDVNNQSFREQEEPSNK [L8G],4.99
17,IKRTIRVSDVNNQSFREQEEPSNK [L8S],4.44
18,IKRTIRVADVNNQSFREQEEPSNK [L8A],4.45
19,IKRTIRVCDVNNQSFREQEEPSNK [L8C],4.93
20,IKRTIRVFDVNNQSFREQEEPSNK [L8F],3.83
21,IKRTIRVVDVNNQSFREQEEPSNK [L8V],3.94
22,IKRTIRVNDVNNQSFREQEEPSNK [L8N],4.57
23,IKRTIRVTDVNNQSFREQEEPSNK [L8T],4.72
24,IKRTIRVRDVNNQSFREQEEPSNK [L8R],4.68

row,Variant,protein stability index
1,IKRTIRVHDVNNQSFREQEEPSNK [L8H],4.93
2,IKRTIRVPDVNNQSFREQEEPSNK [L8P],4.93
3,IKRTIRVKDVNNQSFREQEEPSNK [L8K],4.46
4,IKRTIRVMDVNNQSFREQEEPSNK [L8M],3.75
5,IKRTIRVYDVNNQSFREQEEPSNK [L8Y],3.96
6,IKRTIRVEDVNNQSFREQEEPSNK [L8E],5.07
7,IKRTIRVWDVNNQSFREQEEPSNK [L8W],3.39
8,IKRTIRVLDVNNQGFREQEEPSNK [S14G],4.17
9,IKRTIRVLDVNNQQFREQEEPSNK [S14Q],3.91
10,IKRTIRVLDVNNQIFREQEEPSNK [S14I],3.64
11,IKRTIRVLDVNNQPFREQEEPSNK [S14P],2.9
12,IKRTIRVLDVNNQHFREQEEPSNK [S14H],3.09
13,IKRTIRVLDVNNQCFREQEEPSNK [S14C],3.27
14,IKRTIRVLDVNNQKFREQEEPSNK [S14K],3.24
15,IKRTIRVLDVNNQEFREQEEPSNK [S14E],3.79
16,IKRTIRVLDVNNQNFREQEEPSNK [S14N],3.47
17,IKRTIRVLDVNNQFFREQEEPSNK [S14F],2.56
18,IKRTIRVLDVNNQAFREQEEPSNK [S14A],3.02
19,IKRTIRVLDVNNQMFREQEEPSNK [S14M],3.21
20,IKRTIRVLDVNNQDFREQEEPSNK [S14D],3.68
21,IKRTIRVLDVNNQLFREQEEPSNK [S14L],2.62
22,IKRTIRVLDVNGQSFREQEEPSNK [N12G],4.14
23,IKRTIRVLDVNHQSFREQEEPSNK [N12H],3.83
24,IKRTIRVLDVNMQSFREQEEPSNK [N12M],3.29

row,Variant,protein stability index
1,IKRTIRVLDVNVQSFREQEEPSNK [N12V],2.97
2,IKRTIRVLDVNYQSFREQEEPSNK [N12Y],3.21
3,IKRTIRVLDVNRQSFREQEEPSNK [N12R],3.14
4,IKRTIRVLDVNIQSFREQEEPSNK [N12I],3.51
5,IKRTIRVLDVNAQSFREQEEPSNK [N12A],3.38
6,IKRTIRVLDVNLQSFREQEEPSNK [N12L],3.25
7,IKRTIRVLDVNQQSFREQEEPSNK [N12Q],4.08
8,IKRTIRVLDVNEQSFREQEEPSNK [N12E],3.98
9,IKRTIRVLDVNFQSFREQEEPSNK [N12F],2.7
10,IKRTIRVLDVNCQSFREQEEPSNK [N12C],3.16
11,IKRTIRVLDVNSQSFREQEEPSNK [N12S],2.82
12,IKRTIRVLDVNWQSFREQEEPSNK [N12W],2.63
13,IKRTIRVLDVNDQSFREQEEPSNK [N12D],4.21
14,IKRTIRVLDVNTQSFREQEEPSNK [N12T],3.3
15,IKRTIRVLDVNKQSFREQEEPSNK [N12K],2.72
16,IKRTIRVLDVNPQSFREQEEPSNK [N12P],3.41
17,IKRTIRVLQVNNQSFREQEEPSNK [D9Q],3.26
18,IKRTIRVLEVNNQSFREQEEPSNK [D9E],3.91
19,IKRTIRVLSVNNQSFREQEEPSNK [D9S],3.5
20,IKRTIRVLHVNNQSFREQEEPSNK [D9H],4.23
21,IKRTIRVLWVNNQSFREQEEPSNK [D9W],2.89
22,IKRTIRVLAVNNQSFREQEEPSNK [D9A],3.31
